Legend:
Prey2313 = target: T1, Prey2313 (human, UniProt Q8WV44 21-380); assay: Y2H; INT ID 399
T1 construct: also called Homo sapiens, clone IMAGE: 3625550, mRNA, partial cds; cbe_2685998
T1 sequence: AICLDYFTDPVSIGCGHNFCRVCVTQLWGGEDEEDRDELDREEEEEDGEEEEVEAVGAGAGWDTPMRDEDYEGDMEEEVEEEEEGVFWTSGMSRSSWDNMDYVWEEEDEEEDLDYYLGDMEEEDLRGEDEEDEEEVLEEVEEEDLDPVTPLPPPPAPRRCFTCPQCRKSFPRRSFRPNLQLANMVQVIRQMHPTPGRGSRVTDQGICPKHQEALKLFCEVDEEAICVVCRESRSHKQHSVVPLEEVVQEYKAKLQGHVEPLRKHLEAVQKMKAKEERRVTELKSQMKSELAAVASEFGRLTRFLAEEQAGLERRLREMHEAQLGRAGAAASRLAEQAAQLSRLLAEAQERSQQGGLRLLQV

[1] = target: T2, kinesin-associated protein 3 (human, UniProt Q92845 1-792); assay: Y2H; INT ID 406
T2 construct: also called KIFAP3; cbe_4138433

TNNC1 = target: T3, TNNC1 (human, UniProt P63316 1-161); assay: Y2H; INT ID 407
T3 construct: also called cbe_4267981

yeast Sec31p homolog = target: T4, yeast Sec31p homolog (human, UniProt O94979 1-1220); assay: Y2H; INT ID 408
T4 construct: also called KIAA0905; cbe_4383836
T4 sequence: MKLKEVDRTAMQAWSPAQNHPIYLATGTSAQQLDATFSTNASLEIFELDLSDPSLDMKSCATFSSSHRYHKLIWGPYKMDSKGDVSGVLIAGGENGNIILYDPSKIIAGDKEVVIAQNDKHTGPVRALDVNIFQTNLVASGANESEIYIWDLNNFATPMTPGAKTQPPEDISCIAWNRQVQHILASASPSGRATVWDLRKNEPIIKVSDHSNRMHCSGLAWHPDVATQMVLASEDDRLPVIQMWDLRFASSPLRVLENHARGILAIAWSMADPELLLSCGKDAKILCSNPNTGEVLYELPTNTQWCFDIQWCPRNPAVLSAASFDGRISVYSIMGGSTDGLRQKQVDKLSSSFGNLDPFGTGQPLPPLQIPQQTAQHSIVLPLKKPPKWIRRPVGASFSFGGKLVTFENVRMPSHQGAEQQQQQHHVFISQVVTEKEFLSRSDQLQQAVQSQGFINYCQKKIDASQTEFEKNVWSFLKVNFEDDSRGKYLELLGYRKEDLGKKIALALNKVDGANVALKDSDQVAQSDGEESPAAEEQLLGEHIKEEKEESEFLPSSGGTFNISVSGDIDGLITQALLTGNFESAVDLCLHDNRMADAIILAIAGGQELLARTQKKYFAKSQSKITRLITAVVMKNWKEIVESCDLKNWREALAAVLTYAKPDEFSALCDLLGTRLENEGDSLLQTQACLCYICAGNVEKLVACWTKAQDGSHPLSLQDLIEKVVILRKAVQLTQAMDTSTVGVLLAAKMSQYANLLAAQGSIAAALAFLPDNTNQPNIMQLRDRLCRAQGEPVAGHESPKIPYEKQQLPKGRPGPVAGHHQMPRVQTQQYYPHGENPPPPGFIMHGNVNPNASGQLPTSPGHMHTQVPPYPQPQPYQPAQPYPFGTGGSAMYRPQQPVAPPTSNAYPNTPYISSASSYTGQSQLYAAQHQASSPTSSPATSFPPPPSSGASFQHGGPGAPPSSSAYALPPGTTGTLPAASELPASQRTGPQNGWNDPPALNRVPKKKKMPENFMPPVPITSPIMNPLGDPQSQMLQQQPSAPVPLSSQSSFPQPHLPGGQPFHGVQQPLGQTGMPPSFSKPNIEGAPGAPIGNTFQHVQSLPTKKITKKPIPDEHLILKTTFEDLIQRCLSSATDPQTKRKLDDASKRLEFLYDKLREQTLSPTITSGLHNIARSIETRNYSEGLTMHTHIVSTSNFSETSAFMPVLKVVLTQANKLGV

Measured: binding result

T2 sequence (Q92845 whole entry): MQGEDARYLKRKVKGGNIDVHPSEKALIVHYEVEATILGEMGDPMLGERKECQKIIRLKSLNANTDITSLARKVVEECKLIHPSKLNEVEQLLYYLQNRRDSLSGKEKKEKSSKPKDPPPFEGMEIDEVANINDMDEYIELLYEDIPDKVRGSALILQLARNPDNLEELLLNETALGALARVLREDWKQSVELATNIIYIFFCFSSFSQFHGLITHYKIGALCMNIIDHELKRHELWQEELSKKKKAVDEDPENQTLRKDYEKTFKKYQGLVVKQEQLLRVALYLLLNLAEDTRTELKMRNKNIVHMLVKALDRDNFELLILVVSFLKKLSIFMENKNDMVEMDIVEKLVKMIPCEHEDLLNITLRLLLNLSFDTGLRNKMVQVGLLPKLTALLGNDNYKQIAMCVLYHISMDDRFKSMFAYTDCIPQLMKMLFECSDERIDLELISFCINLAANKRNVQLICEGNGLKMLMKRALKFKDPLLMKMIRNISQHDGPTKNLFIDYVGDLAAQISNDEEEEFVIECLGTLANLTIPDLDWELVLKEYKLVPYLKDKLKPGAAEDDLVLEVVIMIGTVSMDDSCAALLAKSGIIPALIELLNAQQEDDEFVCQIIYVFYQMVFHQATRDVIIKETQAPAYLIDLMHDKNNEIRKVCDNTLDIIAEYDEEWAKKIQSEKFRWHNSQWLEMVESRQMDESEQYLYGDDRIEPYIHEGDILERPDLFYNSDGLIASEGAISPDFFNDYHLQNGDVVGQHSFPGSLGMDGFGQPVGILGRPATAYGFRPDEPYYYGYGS

B1: Human Papillomavirus 1a E1-E4 (other)
chain: MADNKAPQGLLGLLQYTPTTQPYPRVTPPSNRRPSTTPNSQDRGRPRRSDKDSRKHLYADGLTDGEDPEVPEVEDEEKENQRPLGHPDLSLLRETLEVYTQRLKRDILQDLDDFCRKLGIHPWSV
notes: also called HPV 1a E1-E4; cbe_251740
binds: Prey2313 | [1] | TNNC1 | yeast Sec31p homolog

Source: patent publication US20050100554A1 (published 2005)
